Results on two molecules are retold here after PMC11813886.

One experiment deals with human C3b. The experiment can be described thus: ELISA. The conditions noted are these: chain shown with the change; human C3b-coated plates; value read at 50 nM protein (highest concentration); parent: est. 0.69; read off a plot.
The target of a further experiment is T1, FHR-B_(Y162H).
T1 chain: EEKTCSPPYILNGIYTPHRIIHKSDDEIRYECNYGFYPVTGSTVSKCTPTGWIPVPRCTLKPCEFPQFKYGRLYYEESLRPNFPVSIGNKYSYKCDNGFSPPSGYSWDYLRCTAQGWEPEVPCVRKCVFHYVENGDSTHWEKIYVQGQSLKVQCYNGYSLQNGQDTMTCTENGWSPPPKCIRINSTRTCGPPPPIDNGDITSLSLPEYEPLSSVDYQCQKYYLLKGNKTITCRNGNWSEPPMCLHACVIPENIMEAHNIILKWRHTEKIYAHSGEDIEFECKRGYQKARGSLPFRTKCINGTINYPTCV
The experiment can be described thus: AUC (analytical ultracentrifugation, sedimentation velocity), self-association (dimerization). Particulars: chain shown with the change; PBS pH 7; parent: est. 1.0; read off a plot.

The next experiment has as its target T2, FHR-B_(T161A,I166V).
T2 chain: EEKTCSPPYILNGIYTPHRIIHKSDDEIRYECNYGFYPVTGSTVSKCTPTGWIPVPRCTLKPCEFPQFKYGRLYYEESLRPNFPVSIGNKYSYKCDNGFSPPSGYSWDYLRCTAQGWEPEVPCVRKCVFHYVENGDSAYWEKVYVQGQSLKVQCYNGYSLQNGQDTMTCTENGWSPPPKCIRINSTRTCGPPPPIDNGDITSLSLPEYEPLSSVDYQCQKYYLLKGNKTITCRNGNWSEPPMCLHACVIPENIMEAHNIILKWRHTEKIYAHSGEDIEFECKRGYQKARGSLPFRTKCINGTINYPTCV
The description is as above. Particulars: chain shown with the change; PBS pH 7; parent: est. 1.0; read off a plot.

Sequence of human C3b (chain, as listed by the source, chain 1 of 2): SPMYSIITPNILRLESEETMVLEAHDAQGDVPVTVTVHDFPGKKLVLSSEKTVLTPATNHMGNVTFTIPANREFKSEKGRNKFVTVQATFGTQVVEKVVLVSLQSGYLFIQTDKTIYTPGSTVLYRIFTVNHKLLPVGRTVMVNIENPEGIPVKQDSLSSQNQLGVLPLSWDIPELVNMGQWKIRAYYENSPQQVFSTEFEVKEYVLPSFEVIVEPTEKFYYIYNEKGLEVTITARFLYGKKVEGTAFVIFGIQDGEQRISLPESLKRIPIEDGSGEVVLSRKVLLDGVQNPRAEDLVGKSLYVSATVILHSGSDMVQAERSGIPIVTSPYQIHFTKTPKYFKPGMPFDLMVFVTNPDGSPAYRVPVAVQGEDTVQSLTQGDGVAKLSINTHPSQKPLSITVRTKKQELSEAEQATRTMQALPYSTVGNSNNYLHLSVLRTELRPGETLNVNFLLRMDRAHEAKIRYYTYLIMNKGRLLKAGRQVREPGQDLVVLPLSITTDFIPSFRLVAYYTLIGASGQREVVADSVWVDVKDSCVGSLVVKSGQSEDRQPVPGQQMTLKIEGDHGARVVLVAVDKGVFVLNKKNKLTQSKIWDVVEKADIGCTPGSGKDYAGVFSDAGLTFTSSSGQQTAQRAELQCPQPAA
Sequence of human C3b (chain, as listed by the source, chain 2 of 2): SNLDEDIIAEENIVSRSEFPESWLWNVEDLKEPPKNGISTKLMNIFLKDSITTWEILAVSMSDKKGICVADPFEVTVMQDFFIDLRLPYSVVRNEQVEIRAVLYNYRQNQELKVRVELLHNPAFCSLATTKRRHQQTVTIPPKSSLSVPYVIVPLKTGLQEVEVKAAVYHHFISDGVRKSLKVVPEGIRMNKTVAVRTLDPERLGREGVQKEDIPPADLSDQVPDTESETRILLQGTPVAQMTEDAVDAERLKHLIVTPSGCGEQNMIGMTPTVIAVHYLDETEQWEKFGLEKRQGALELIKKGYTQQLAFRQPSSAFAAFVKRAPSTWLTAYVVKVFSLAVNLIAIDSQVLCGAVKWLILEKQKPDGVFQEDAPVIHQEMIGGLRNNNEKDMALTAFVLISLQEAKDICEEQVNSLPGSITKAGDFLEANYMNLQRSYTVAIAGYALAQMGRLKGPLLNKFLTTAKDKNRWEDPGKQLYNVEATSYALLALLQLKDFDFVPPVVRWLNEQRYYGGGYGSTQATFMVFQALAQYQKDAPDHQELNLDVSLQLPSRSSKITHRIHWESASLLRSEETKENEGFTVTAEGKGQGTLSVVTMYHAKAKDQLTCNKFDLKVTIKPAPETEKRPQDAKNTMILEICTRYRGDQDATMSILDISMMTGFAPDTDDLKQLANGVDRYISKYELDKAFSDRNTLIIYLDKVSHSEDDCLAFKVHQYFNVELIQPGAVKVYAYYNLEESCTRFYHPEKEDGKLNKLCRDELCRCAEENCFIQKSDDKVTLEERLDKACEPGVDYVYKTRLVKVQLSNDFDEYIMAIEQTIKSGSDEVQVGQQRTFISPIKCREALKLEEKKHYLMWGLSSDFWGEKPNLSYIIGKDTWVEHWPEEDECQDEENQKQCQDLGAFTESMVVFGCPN

B1: recombinant form of the native mouse FHR-B protein (rFHR-B) Y162H (protein)
chain: EEKTCSPPYILNGIYTPHRIIHKSDDEIRYECNYGFYPVTGSTVSKCTPTGWIPVPRCTLKPCEFPQFKYGRLYYEESLRPNFPVSIGNKYSYKCDNGFSPPSGYSWDYLRCTAQGWEPEVPCVRKCVFHYVENGDSTHWEKIYVQGQSLKVQCYNGYSLQNGQDTMTCTENGWSPPPKCIRINSTRTCGPPPPIDNGDITSLSLPEYEPLSSVDYQCQKYYLLKGNKTITCRNGNWSEPPMCLHACVIPENIMEAHNIILKWRHTEKIYAHSGEDIEFECKRGYQKARGSLPFRTKCINGTINYPTCV
For the molecule B1, in the experiment with human C3b, the response came to 0.66 Abs 405nm. Besides, the other: c(S) height of dimer peak (normalised distribution) in the experiment with FHR-B_(Y162H) was 0.09.

B2: recombinant form of the native mouse FHR-B protein (rFHR-B) T161A; I166V (protein)
chain: EEKTCSPPYILNGIYTPHRIIHKSDDEIRYECNYGFYPVTGSTVSKCTPTGWIPVPRCTLKPCEFPQFKYGRLYYEESLRPNFPVSIGNKYSYKCDNGFSPPSGYSWDYLRCTAQGWEPEVPCVRKCVFHYVENGDSAYWEKVYVQGQSLKVQCYNGYSLQNGQDTMTCTENGWSPPPKCIRINSTRTCGPPPPIDNGDITSLSLPEYEPLSSVDYQCQKYYLLKGNKTITCRNGNWSEPPMCLHACVIPENIMEAHNIILKWRHTEKIYAHSGEDIEFECKRGYQKARGSLPFRTKCINGTINYPTCV
As to B2, in the experiment with human C3b, the response was 0.66 Abs 405nm. Besides, the other: c(S) height of dimer peak (normalised distribution) with FHR-B_(T161A,I166V) came to 0.13.
